Experimental data taken from US20100047245A1.
Changes are numbered by the printed parent chain.

Assays:
[1] = molecular target: recombinant purified human IL-12 p70 (human) (UniProt P29459); assay: SPR (Biacore 3000), mAb captured via goat anti-mouse IgG Fc, human IL-12 p70 in solution
[2] = molecular target: recombinant purified human IL-12 p70 (human) (UniProt P29459); assay: competition ELISA on plate-coated human IL-12; competes 0.8 µg/ml biotinylated 8E1; Expt. 2
[3] = molecular target: recombinant purified human IL-12 p70 (human) (UniProt P29459); assay: competition ELISA on plate-coated human IL-12; competes 0.8 µg/ml biotinylated 8E1; Average
[4] = molecular target: recombinant purified human IL-12 p70 (human) (UniProt P29459); assay: competition ELISA on plate-coated human IL-12; competes 0.8 µg/ml biotinylated 8E1; Expt. 3
[5] = molecular target: recombinant purified human IL-12 p70 (human) (UniProt P29459); assay: competition ELISA on plate-coated human IL-12; competes 0.8 µg/ml biotinylated 8E1; Expt. 1
[6] = molecular target: recombinant purified human IL-12 p70 (human) (UniProt P29459); assay: cell-based or functional assay
[7] = molecular target: recombinant purified human IL-12 p70 (human) (UniProt P29459); assay: SPR (Biacore) per Example 1.1.B, recombinant human IL-12p70
[8] = molecular target: recombinant purified human IL-12 p70 (human) (UniProt P29459); assay: SPR (BIAcore) per Example 1.1.B, recombinant human IL-12p70
[9] = molecular target: recombinant purified human IL-12 p70 (human) (UniProt P29459); assay: SPR (Biacore) per Example 1.1.B; antigen not restated, taken as human IL-12 p70

recombinant purified human IL-12 p70 (human), sequence (chain, as listed by the source, form in doubt, chain 1 of 2): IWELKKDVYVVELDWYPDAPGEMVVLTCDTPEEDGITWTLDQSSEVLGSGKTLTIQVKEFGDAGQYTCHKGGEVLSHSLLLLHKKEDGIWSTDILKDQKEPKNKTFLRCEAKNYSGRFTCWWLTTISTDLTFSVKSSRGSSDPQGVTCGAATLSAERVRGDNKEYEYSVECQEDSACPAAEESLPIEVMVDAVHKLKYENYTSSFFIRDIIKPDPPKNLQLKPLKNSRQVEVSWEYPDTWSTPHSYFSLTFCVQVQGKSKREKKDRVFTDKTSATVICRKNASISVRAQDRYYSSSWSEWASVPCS
recombinant purified human IL-12 p70 (human), sequence (P29459 23-219, form in doubt, chain 2 of 2): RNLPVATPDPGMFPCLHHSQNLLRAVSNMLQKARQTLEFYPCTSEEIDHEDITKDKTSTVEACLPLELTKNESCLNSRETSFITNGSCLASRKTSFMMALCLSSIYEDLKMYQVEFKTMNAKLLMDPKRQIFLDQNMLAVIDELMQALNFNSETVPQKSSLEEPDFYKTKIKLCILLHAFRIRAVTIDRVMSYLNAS

B1: 8E1 (antibody, V domains shown)
VH: EVKLVESGGGLVQPGGSRKLSCAASGFTFSDYGMVWVRQAPGKGLEWVASISSGSSNIYYADTVKGRFTISRDDPNNTLFLQMRSLRSEDTAMYYCARNPYWGQGTTLTVSS
VL: DIVMTQSQKFMSTSVGDRVSVTCKASQNVGTNVAWYQQKPGQSPKGLIYSASHRYSGVPDRFAGSGSGTDFTLTISNVQSEDLAEYFCQQYNSYPLTFGGGTKLELKR
Binder B1 has a Kd [1] of 0.074 nM, a koff [1] of 5.1e-05 s⁻¹ and a kon [1] of 690000 M⁻¹ s⁻¹. For the same binder, the IC50 [2] was 2.78 µg/mL, the IC50 [3] was 2.56 µg/mL and the IC50 [4] was 2.28 µg/mL. It also gave an IC50 [5] of 2.63 µg/mL and an Average IC50 (nM) Human IL-12; PHA blast IFN-gamma induction assay [6] of 0.19 nM.

B2: 8E1.1 (antibody, human IgG1, kappa, L234A L235A, V domains shown)
VH: EVQLVESGGGLVQPGGSLRLSCAASGFTFSDYGMVWVRQAPGKGLEWVGSISSGSSNIYYADTVKGRFTISRDDSKNSLYLQMNSLKTEDTAVYYCARNPYWGQGTTVTVSS
VL: DIQMTQSPSSLSASVGDRVTITCKASQNVGTNVAWYQQKPEKAPKSLIYSASHRYSGVPSRFSGSGSGTDFTLTISSLQPEDFATYYCQQYNSYPLTFGGGTKVEIKR
With B2 the Av. IC50 (nM) Hu IL-12; PHA blast IFN-gamma induction assay [6] was 2.8 nM, the Kd [7] was 1.7 nM and the koff [7] was 0.00087 s⁻¹. It also gave a kon [7] of 520000 M⁻¹ s⁻¹.

B3: 1A6.9 (antibody, human IgG1, kappa, L234A L235A, V domains shown)
VH: EVTLRESGPALVKPTQTLTLTCTFSGFSLSTSGMGVSWIRQPPGKALEWLAHIWWDGDNYYNPSLKSRLTISKDTSKNQVVLTMTNMDPVDTATYYCARRTRVNYAMDYWGQGTTVTVSS
VL: SVVMTQSPDSLAVSLGERATINCKASQSVSNDVAWFQQKPGQPPKLLIYYASNRYTGVPDRFSGSGYGTDFTLTISSLQAEDVAVYYCQQDYNSPWTFGGGTKVEIKR
B3 was tested, and the Av. IC50(nM) huIL-12; PHA blast IFN-gamma induction assay [6] was 0.15 nM, the Kd [8] was < 0.01 nM and the koff [8] was < 1e-05 s⁻¹. It also gave a kon [8] of 350000 M⁻¹ s⁻¹.

B4: 8E1.3 (antibody, human IgG1, kappa, L234A L235A, V domains shown)
VH: B2 VH with Q3K, G49A, S78T
VL: B2 VL with Q3V
B4 was tested, and the Av. IC50(nM) huIL-12; PHA blast IFN-gamma induction assay [6] was 10 nM, the Kd [8] was 0.76 nM and the koff [8] was 0.001 s⁻¹. For the same binder, the kon [8] was 1.3e+06 M⁻¹ s⁻¹.

B5: 8E1.4 (antibody, IgG1, V domains shown)
VH: B2 VH with G49A, D74N, S75A, S78T, K87R, T88A, T107L
VL: B2 VL with E41G, S46G
Work on B5 yielded an IC50 [4] of 8.33 µg/mL, an Av. IC50(nM) huIL-12; PHA blast IFN-gamma induction assay [6] of 12 nM and a Kd [9] of 1.3 nM. The koff [9] was 0.001 s⁻¹ and the kon [9] was 800000 M⁻¹ s⁻¹.

B6: 8E1.5 (antibody, IgG1, V domains shown)
VH: B2 VH with G49A, D74N, S75A, S78T, K87R, T88A, T107L
VL: B2 VL with E41G, S46G, S60D
For B6, the IC50 [4] was 13.4 µg/mL, the Av. IC50(nM) huIL-12; PHA blast IFN-gamma induction assay [6] was 8 nM and the Kd [9] was 0.75 nM. The koff [9] was 0.00124 s⁻¹ and the kon [9] was 1.6e+06 M⁻¹ s⁻¹.

B7: 8E1.6 (antibody, V domains shown)
VH: B2 VH with G49A, S75A, S78T, K87R, T88A, T107L
VL: B2 VL with E41G, S46G
B7 was tested, and the IC50 [2] was 2.43 µg/mL, the IC50 [3] was 2.1 µg/mL and the IC50 [4] was 1.61 µg/mL. The IC50 [5] was 2.25 µg/mL, the Kd [9] was 0.046 nM and the koff [9] was 8e-05 s⁻¹. The kon [9] was 1.7e+06 M⁻¹ s⁻¹.
